Reference: US20060029603A1 (GlaxoSmithKline, published 2006)
Substitutions are numbered along the chain they refer to.

B1: H6L13 (antibody, human IgG1, kappa, V domains shown)
VH: QVQLVQSGAEVKKPGASVKVSCKASGYTFTSYWMHWVRQAPGQGLEWIGNINPSNGGTNYNEKFKSRATMTRDTSTSTAYMELSSLRSEDTAVYYCELGQGYWGQGTLVTVSS
VL: DIVMTQSPLSLPVTLGQPASISCRSSKSLLYKDGKTYLNWFQQRPGQSPQLLIYLMSTRASGVPDRFSGGGSGTDFTLKISRVEAEDVGVYYCQQLVEYPLTFGQGTKLEIKR
notes: Humanised 2A10; Human gamma1 mutated constant region and human kappa; also called H6L13 FL
B2: murine monoclonal antibody 2A10 (antibody, V domains shown)
VH: QVQLQQPGTELVKPGASVKLSCKASGYTFTSYWMHWVKQRPGQGLEWIGNINPSNGGTNYNEKFKSKATLTVDKSSSTAYMQLSSLTSEDSAVYYCELGQGYWGQGTTLTVSS
VL: DIVITQDELSNPVTSGESVSISCRSSKSLLYKDGKTYLNWFLQRPGQSPQLLIYLMSTRASGVSDRFSGSGSGTDFTLEISRVKAEDVGVYYCQQLVEYPLTFGAGTKLELK
notes: Murine antibody; also called donor antibody
B3: HcLc (chimera of 2A10: murine 2A10 VH and VL with human IgG constant regions) (antibody, V domains shown)
VH: B2 VH with T108L, L109V
VL: DIVITQDELSNPVTSGESVSISCRSSKSLLYKDGKTYLNWFLQRPGQSPQLLIYLMSTRASGVSDRFSGSGSGTDFTLEISRVKAEDVGVYYCQQLVEYPLTFGAGTKLELKR
notes: Human gamma1 mutated constant region and human kappa; also called 2A10 chimeric antibody; the chimera
B4: H18L16 (antibody, human IgG1, kappa, V domains shown)
VH: B2 VH with Q5V, P7S, T9A, L11V, Q82E, T87R, T108L, L109V
VL: B1 VL with L11N, A19V, Q42L
notes: Humanised 2A10; also called H18L16 FL
B5: H6L18 (antibody, human IgG1, kappa, V domains shown)
VH: B1 VH
VL: B1 VL with S7D, L11N, A19V, Q42L, P64S, G70S
notes: Tested as CHO-K1 supernatant
B6: H1L11 (antibody, human IgG1, kappa, V domains shown)
VH: B1 VH with I48M, A68V, A79V
VL: B1 VL with M4I
notes: Earlier humanised 2A10
B7: H16L16 (antibody, human IgG1, kappa)
heavy: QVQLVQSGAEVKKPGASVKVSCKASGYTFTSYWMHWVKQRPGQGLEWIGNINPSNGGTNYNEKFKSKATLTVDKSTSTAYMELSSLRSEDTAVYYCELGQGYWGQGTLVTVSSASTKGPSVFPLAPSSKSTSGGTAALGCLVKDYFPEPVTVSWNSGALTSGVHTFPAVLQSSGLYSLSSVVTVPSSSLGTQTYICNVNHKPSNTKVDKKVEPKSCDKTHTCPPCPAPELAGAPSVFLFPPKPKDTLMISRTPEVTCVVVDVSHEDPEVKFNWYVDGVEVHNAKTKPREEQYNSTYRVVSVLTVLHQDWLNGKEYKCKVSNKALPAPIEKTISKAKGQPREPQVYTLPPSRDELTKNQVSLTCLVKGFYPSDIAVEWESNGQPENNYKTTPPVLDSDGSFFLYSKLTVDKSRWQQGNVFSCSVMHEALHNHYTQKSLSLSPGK
light: DIVMTQSPLSNPVTLGQPVSISCRSSKSLLYKDGKTYLNWFLQRPGQSPQLLIYLMSTRASGVPDRFSGGGSGTDFTLKISRVEAEDVGVYYCQQLVEYPLTFGQGTKLEIKRTVAAPSVFIFPPSDEQLKSGTASVVCLLNNFYPREAKVQWKVDNALQSGNSQESVTEQDSKDSTYSLSSTLTLSKADYEKHKVYACEVTHQGLSSPVTKSFNRGEC
notes: Humanised 2A10; Human gamma1 mutated constant region and human kappa; also called H16L16 FL
B8: H14L16 (antibody, human IgG1, kappa, V domains shown)
VH: B1 VH with K12V, V20L, R38K, M70L
VL: B1 VL with L11N, A19V, Q42L
B9: H16L18 (antibody, human IgG1, kappa)
heavy: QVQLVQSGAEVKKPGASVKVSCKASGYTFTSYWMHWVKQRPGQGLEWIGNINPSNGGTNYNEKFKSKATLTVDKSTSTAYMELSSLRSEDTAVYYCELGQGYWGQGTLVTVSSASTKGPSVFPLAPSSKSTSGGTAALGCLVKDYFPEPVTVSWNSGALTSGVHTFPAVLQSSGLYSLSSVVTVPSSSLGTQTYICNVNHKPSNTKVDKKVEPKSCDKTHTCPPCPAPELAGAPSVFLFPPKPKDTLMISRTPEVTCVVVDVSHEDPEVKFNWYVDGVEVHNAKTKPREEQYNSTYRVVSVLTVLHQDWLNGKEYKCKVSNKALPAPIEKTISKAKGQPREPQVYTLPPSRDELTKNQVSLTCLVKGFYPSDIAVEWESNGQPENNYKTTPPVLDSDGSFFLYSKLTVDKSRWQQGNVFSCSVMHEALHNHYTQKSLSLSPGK
light: B7 light with S7D, P64S, G70S
notes: Humanised 2A10; Human gamma1 mutated constant region and human kappa; also called H16L18 FL
B10: H15L18 (antibody, human IgG1, kappa, V domains shown)
VH: B2 VH with Q5V, P7S, T9A, L11V, K74T, Q82E, T87R, T108L, L109V
VL: B1 VL with S7D, L11N, A19V, Q42L, P64S, G70S
notes: Tested as CHO-K1 supernatant
B11: H18L18 (antibody, human IgG1, kappa, V domains shown)
VH: B2 VH with Q5V, P7S, T9A, L11V, Q82E, T87R, T108L, L109V
VL: B1 VL with S7D, L11N, A19V, Q42L, P64S, G70S
notes: Tested as CHO-K1 supernatant
B12: H15L13 (antibody, human IgG1, kappa, V domains shown)
VH: B2 VH with Q5V, P7S, T9A, L11V, K74T, Q82E, T87R, T108L, L109V
VL: B1 VL
notes: Tested as CHO-K1 supernatant

These binders were tested against T1, GST-human NOGO-A56 (human, UniProt P08515 1-218 = GST) (assay: SPR (Biacore 3000), GST-human NOGO-A56 on CM5, antibody as analyte; single experiment).
T1 construct: GST-tagged fusion expressed in E. coli BL21 and purified on glutathione-sepharose; coated on ELISA plates or amine-coupled to a CM5 chip; also called hNOGO; recombinant human NOGO
T1 sequence (P08515 1-218, tags or fused parts left off): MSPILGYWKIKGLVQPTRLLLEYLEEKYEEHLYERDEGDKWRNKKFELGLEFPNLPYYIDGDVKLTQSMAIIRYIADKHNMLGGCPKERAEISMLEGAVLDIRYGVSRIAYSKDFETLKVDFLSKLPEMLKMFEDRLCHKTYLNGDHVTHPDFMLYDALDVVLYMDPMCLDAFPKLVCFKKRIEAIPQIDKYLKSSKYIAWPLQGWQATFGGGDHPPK
Method: (§1) hNOGO (GST-human NOGO-A56) was immobilised to a CM5 chip by primary amine coupling using the Biacore Wizard program designed for targeted immobilisation levels. The CM5 sensor surface was activated by passing a solution of 50 mM N-hydroxy-succinimide (NHS) and 200 mM N-ethyl-N′-dimethylaminopropyl […] (EDC). Then hNOGO in sodium acetate buffer, pH5.0 or pH 4.5, was passed over the chip and immobilised. After immobilisation was complete any still activated esters were blocked by an injection of 1M ethanolamine hydrochloride, pH8.5.
(§2) The anti-NOGO mAbs were diluted down in HBS-EP (10 mM HEPES, pH 7.4, 150 mM NaCl, 3 mM EDTA, and 0.005% P-20 surfactant) and binding studies were carried out at range of defined antibody concentrations. All runs were referenced against a blanked sensor surface (one that had been activated and blocked as described earlier but had no addition of ligand). Analysis of binding was carried out using the BIAevaluation kinetic analysis software version 4.1. Biacore analysis of other antibodies of the invention essentially followed the same protocol as described herein.
B1 was tested, and the Kd was 7.9 nM, the koff was 0.0233 s⁻¹ and the kon was 2.95e+06 M⁻¹ s⁻¹.

These binders were tested against T1, GST-human NOGO-A56 (assay: SPR (BiaCore kinetic analysis), human NOGO).
B2 was tested, and the Kd was about 1 nM and the koff was about 0.00184 s⁻¹.

These binders were tested against T1, GST-human NOGO-A56 (assay: SPR (Biacore) off-rate ranking, CHO-K1 transient supernatant over GST-human NOGO-A56 chip; mean (SD) of two runs).
Method: as §1
(§3) The hNOGO chip was prepared as for kinetic analysis. Cell supernatants where taken directly from transient transfections of CHO-K1 cells. These were passed directly over the sensor surface and the interaction measured. A mock transfected cell supernatant was used for double referencing to remove any artefacts due to the tissue culture media. All runs were referenced against a blanked sensor surface (one that had been activated and blocked as described earlier but had no addition of ligand). Analysis of binding was carried out using the BIAevaluation kinetic analysis software version 4.1.
B3 was tested, and the koff was 0.00376 s⁻¹.
In the case of B4, the koff is reported as 0.00687 s⁻¹.

These binders were tested against T1, GST-human NOGO-A56 (assay: ELISA, coated GST-human NOGO-A56, transfection supernatant, anti-human kappa-HRP, OD 490 nm).
Method: (§4) GST-human NOGO-A56 (SEQ ID: 76) at 1 μg/ml in PBS was coated onto Nunc Immunosorp plates (100 μl per well) at 4° C. overnight. Wells were rinsed once with TBS+0.05% Tween (TBST) then incubated with 2% BSA in TBST to block non-specific binding sites at room temperature for 1 hour. Antibodies were diluted in TBST+2% BSA to 10 μg/ml and 1/2 dilutions made from this. Antibodies were added to wells in duplicate and incubated at room temperature for 1 hour. Wells were washed three times with TBST then incubated with anti-human kappa peroxidase conjugate (1:2000) for 1 hour. The wells were washed three times with TBST and then incubated with 100 μl OPD peroxidase substrate (Sigma) per well for 10 minutes. The colour reaction was stopped by the addition of 25 μl concentrated H₂SO₄. Optical density at 490 nm was measured using a plate reader. Background values read from wells with no antibody were subtracted.
B3 was tested, and the “EC50 (read off the curve)” value was about 0.2 µg/mL.
B5 was tested, and the “EC50 (read off the curve)” value was about 0.4 µg/mL.
With B4 the “EC50 (read off the curve)” value was about 0.4 µg/mL.

Target: T1, GST-human NOGO-A56
Assay: SPR (Biacore 3000), GST-human NOGO-A56 on CM5, antibody as analyte; single experiment
Remark: another data set of the same source
Method: (§5) The binding kinetics of the anti-NOGO monoclonal antibody (mAb) to recombinantly expressed human NOGO-A (GST-human NOGO-A56) was analysed using the Biacore3000 biosensor. The hNOGO-A chip was prepared as follows:
as §1, §2
B3 was tested, and the Kd was 1.6 nM, the koff was 0.00412 s⁻¹ and the kon was 2.62e+06 M⁻¹ s⁻¹.
For B6, the Kd was 21.3 nM, the koff was 0.0284 s⁻¹ and the kon was 1.33e+06 M⁻¹ s⁻¹.
Binder B7 has a Kd of 1 nM, a koff of 0.00569 s⁻¹ and a kon of 5.47e+06 M⁻¹ s⁻¹.
B1 was tested, and the Kd was 7.3 nM, the koff was 0.013 s⁻¹ and the kon was 1.77e+06 M⁻¹ s⁻¹.
In the case of B8, the Kd is reported as 3.6 nM, the koff is reported as 0.00739 s⁻¹ and the kon is reported as 2.05e+06 M⁻¹ s⁻¹.

Target: T1, GST-human NOGO-A56
Assay: ELISA, coated GST-human NOGO-A56, transfection supernatant, anti-human kappa-HRP, OD 490 nm
Remark: another data set of the same source
Method: as §4
With B3 the “EC50 (read off the curve)” value was about 0.02 µg/mL.
For B7, the “EC50 (read off the curve)” value was about 0.04 µg/mL.
In the case of B8, the “EC50 (read off the curve)” value is reported as about 0.09 µg/mL.

Target: T1, GST-human NOGO-A56
Assay: as above
Remark: another data set of the same source
Method: as §4
With B7 the “EC50 (read off the curve)” value was about 0.06 µg/mL.
In the case of B4, the “EC50 (read off the curve)” value is reported as about 0.04 µg/mL.
For B9, the “EC50 (read off the curve)” value was about 0.04 µg/mL.

What follows are binders tested against T1, GST-human NOGO-A56 (assay: SPR (Biacore) off-rate ranking, CHO-K1 transient supernatant over GST-human NOGO-A56 chip; mean (SD) of three runs).
Method: as §1, §3
Binder B6 has a koff of 0.0403 s⁻¹.
With B7 the koff was 0.00664 s⁻¹.
B1 gave a koff of 0.0173 s⁻¹.
For B9, the koff was 0.00609 s⁻¹.

Target: T1, GST-human NOGO-A56
Assay: ELISA, coated GST-human NOGO-A56, transfection supernatant, anti-human kappa-HRP, OD 490 nm
Remark: another data set of the same source
Method: as §4
For B3, the “EC50 (read off the curve)” value was about 0.05 µg/mL.
In the case of B10, the “EC50 (read off the curve)” value is reported as about 0.04 µg/mL.
In the case of B8, the “EC50 (read off the curve)” value is reported as about 0.08 µg/mL.
B9 was tested, and the “EC50 (read off the curve)” value was about 0.03 µg/mL.

Target: T1, GST-human NOGO-A56
Assay: as above
Remark: another data set of the same source
Method: as §4
B3 was tested, and the “EC50 (read off the curve)” value was about 0.09 µg/mL.
For B1, the “EC50 (read off the curve)” value was about 0.2 µg/mL.
With B11 the “EC50 (read off the curve)” value was about 0.1 µg/mL.

What follows are binders tested against T1, GST-human NOGO-A56 (assay: SPR (Biacore 3000), GST-human NOGO-A56 amine-coupled to CM5, antibody as analyte; mean (SD) of four experiments).
Method: as §5, §1, §2
For B3, the Kd was 1.41 nM, the koff was 0.00378 s⁻¹ and the kon was 2.7e+06 M⁻¹ s⁻¹.
Binder B6 has a Kd of 18.6 nM, a koff of 0.0314 s⁻¹ and a kon of 1.73e+06 M⁻¹ s⁻¹.
Work on B7 yielded a Kd of 1.26 nM, a koff of 0.00554 s⁻¹ and a kon of 4.37e+06 M⁻¹ s⁻¹.
For B1, the Kd was 7.68 nM, the koff was 0.0137 s⁻¹ and the kon was 1.82e+06 M⁻¹ s⁻¹.
Work on B4 yielded a Kd of 1.62 nM, a koff of 0.00586 s⁻¹ and a kon of 3.64e+06 M⁻¹ s⁻¹.
Binder B9 has a Kd of 1.33 nM, a koff of 0.00552 s⁻¹ and a kon of 4.18e+06 M⁻¹ s⁻¹.

The binders below were run against T1, GST-human NOGO-A56 (assay: SPR (Biacore 3000), GST-human NOGO-A56 on CM5, antibody as analyte; mean (SD) of two experiments).
Method: as §1, §2
With B3 the Kd was 0.995 nM, the koff was 0.00346 s⁻¹ and the kon was 3.52e+06 M⁻¹ s⁻¹.

Target: T1, GST-human NOGO-A56
Assay: ELISA, coated GST-human NOGO-A56, transfection supernatant, anti-human kappa-HRP, OD 490 nm
Remark: another data set of the same source
Method: as §4
With B7 the “EC50 (read off the curve)” value was about 0.06 µg/mL.
For B12, the “EC50 (read off the curve)” value was about 0.05 µg/mL.
In the case of B9, the “EC50 (read off the curve)” value is reported as about 0.06 µg/mL.

Target: T1, GST-human NOGO-A56
Assay: as above
Remark: another data set of the same source
Method: as §4
For B3, the “EC50 (read off the curve)” value was about 0.2 µg/mL.
In the case of B5, the “EC50 (read off the curve)” value is reported as about 0.5 µg/mL.
In the case of B4, the “EC50 (read off the curve)” value is reported as about 0.4 µg/mL.
In the case of B9, the “EC50 (read off the curve)” value is reported as about 0.4 µg/mL.

What follows are binders tested against T1, GST-human NOGO-A56 (assay: SPR (Biacore) off-rate ranking, CHO-K1 transient supernatant over GST-human NOGO-A56 chip; single experiment).
Method: as §1, §3
In the case of B5, the koff is reported as 0.0106 s⁻¹.
Work on B10 yielded a koff of 0.00594 s⁻¹.
In the case of B12, the koff is reported as 0.00965 s⁻¹.
B8 showed a koff of 0.0089 s⁻¹.
For B11, the koff was 0.0058 s⁻¹.
